The text below walks through data of publication PMC11667226 (Theranostics, 2025).

Marks after values point to notes of the source that are not given here. Non-standard residues stand in square brackets, D forms with d. Residues, ends and D or L forms follow the SMILES beside them. *: point of attachment. X1 = CC1(C)C(=CC=CC=CC=CC2=[N+](CCCCCC(=O)*)c3ccc4ccccc4c3C2(C)C)N(CCCCS(=O)(=O)[O-])c2ccc3ccccc3c21; Cha = N[C@@H](CC1CCCCC1)C(=O)O

Series [1] deals with oral and oropharyngeal squamous cell carcinoma (OSCC, OPSCC). The series is described as follows: Sensitivity of FG001 optical imaging for tumor detection, verified by histology. The format is in vivo, human. The note with it: 16 patients with OSCC/OPSCC; FG001 36, 16 or 4 mg i.v. the evening prior to surgery; 11 optically guided biopsies and 5 cross-section samples. As to the method:
For 11 out of 16 patients, a single biopsy was sampled from the resected tumor specimen ex-vivo on the back-table from a region with a bright fluorescence presented by the imaging system. For the remaining 5 patients, the tumors were cross-sectioned for detailed optical imaging and histopathological processing (see next section). The back-table imaging was performed with the same settings (Image profile: NIR_highcontrast or NIR_contrast, excitation laser: 805 nm) and with no other light sources, always with a perpendicular angle to the table, and a camera-to-tumor distance of 20 centimeters. The biopsies were taken with biopsy-punch-forceps, hereafter formalin (4%) fixed, paraffin-embedded (i.e. FFPE), and evaluated with histopathological assessment by a pathologist for the presence of cancer tissue - concluding on cancer-positive or negative.
For 5 out of the 16 patients, the resected tumor specimens were cut in half, sliced at the OR, and imaged with the Elevision® imaging system. The specimens underwent routine pathologic processing at the Department of Pathology. […] To evaluate the overlap between fluorescence signal from FG001, uPAR-expression, and tumor tissue, the cryosections were first fluorescently scanned with an Amersham Typhoon^TM scanner from Cytiva and, thereafter, stained using immunohistochemistry for uPAR and Cytokeratin (CK), and hematoxylin and eosin (H&E) stained. […]

The target of the next series is T1, uPAR (Homo sapiens, UniProt Q03405).
T1 construct: from tissue
T1 sequence (Q03405 23-335): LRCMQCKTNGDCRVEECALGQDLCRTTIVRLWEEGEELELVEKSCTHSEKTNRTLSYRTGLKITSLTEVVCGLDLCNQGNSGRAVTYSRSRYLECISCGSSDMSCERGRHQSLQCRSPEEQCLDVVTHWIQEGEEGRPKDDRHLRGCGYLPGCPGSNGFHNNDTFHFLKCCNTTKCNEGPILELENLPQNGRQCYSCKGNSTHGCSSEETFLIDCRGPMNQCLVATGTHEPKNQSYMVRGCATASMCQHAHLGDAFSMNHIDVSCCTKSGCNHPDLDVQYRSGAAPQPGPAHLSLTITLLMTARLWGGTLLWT
The series is described as follows: Morphological co-localization between FG001 signal, tumor tissue and uPAR expression (Typhoon/Odyssey scan, IHC, H&E). The source says:
For 5 out of the 16 patients, the resected tumor specimens were cut in half, sliced at the OR, and imaged with the Elevision® imaging system. The specimens underwent routine pathologic processing at the Department of Pathology. The slices were frozen with a Milestone PrestoCHILL cryoembedder/freezer and, cut into 8 µm tissue slices with a Leica® CM1860 Cryostat and placed on glass slides. To evaluate the overlap between fluorescence signal from FG001, uPAR-expression, and tumor tissue, the cryosections were first fluorescently scanned with an Amersham Typhoon^TM scanner from Cytiva and, thereafter, stained using immunohistochemistry for uPAR and Cytokeratin (CK), and hematoxylin and eosin (H&E) stained. The Typhoon^TM scanner settings were PMT: 350-500 V and excitation wavelength: 785 nm. The immunohistochemical staining for uPAR was performed with the antibody GTX100467 (Gentex, USA), and Cytokeratin with M351529-2 Dako (Agilent). The H&E stain was performed according to standard practice. All tissue slides were scanned with the high-resolution AxioScan 7 (Zeiss, Germany). […]
The different stained tissue sections were aligned using the BigWarp plugin in Fiji (NIH, open-source version: 1.54f) software. A pathologist delineated the tumors, and the fluorescence imaging generated from the Typhoon scanner was overlayed on the HE stains using ImageJ (NIH, open source), (see Figure 3M).

A short description of a further series: clinical. As to the method: The blood samples were collected in Vacuette® 3 mL K2E K2EDTA vacutainer blood collection tubes, centrifuged (2500 rpm for 10 min at 4 °C), and the plasma was stored in a -20 °C freezer. Plasma concentrations were measured based on liquid chromatography with tandem mass spectrometric detection (LC-MS/MS) validated according to good laboratory practice (GLP), (LabCorp, Huntingdon, UK). The PK analysis was performed using a non-compartmental analysis method. […] The terminal phase half-life (T½) was calculated using terminal phase rate constant, which resulted from linear regression of the terminal linear portion of the log-concentration vs. time curve.
The primary endpoint was the sensitivity for detection of oral and oropharyngeal cancer verified by histology. The secondary endpoints were divided into efficacy and safety & tolerability. Regarding efficacy, the TBR and intraoperative tumor signal intensity were endpoints. The pharmacokinetics profile determined by a non-compartmental analysis was specified by peak plasma concentration, time of peak plasma concentration, the area under the plasma concentration-time curve from time-zero extrapolated to infinity, and terminal half-life. The safety & tolerability were assessed with adverse event monitoring, laboratory parameters, ECGs, vital signs, and physical examinations.

The test system of series [2] is neck lymph node metastasis. As to the kind of experiment: Optical visualization of neck lymph node metastasis. The format is in vivo, human. The method, then:
All patients were treated surgically according to the national guidelines. The primary investigator (PI) was part of the surgical team in all procedures. A surgical robot system (DaVinci Si, Intuitive) was used for TORS in the two patients with OPSCC. The surgeons were not allowed to resect tissue based on intraoperative detected fluorescence signal but complied with standard of care. Depending on the clinical TNM staging (based on clinical examination, ultrasonography examination of the neck, and MRI or CT scans), either sentinel lymph node biopsy (using 99^mTc-nanocoll) or neck dissection was performed for neck management. Post-surgical (chemo)radiation was prescribed according to national guidelines at a multidisciplinary conference. The pre-, intraoperative, and ex-vivo optical images were obtained using the open-field imaging system Elevision® model VS3 Iridium-Visionsense Infrared (IR) Fluorescence, Vision System (Medtronics, USA). Image profile: NIR_highcontrast or NIR_contrast, excitation laser: 805 nm. The Elevision IR system generates real-time optical imaging merged with the color video recording on a viewer screen. The intensity-dependent multi-color NIR overlay was presented in parallel with white-light and NIR grayscale images. The camera head was mounted on a maneuverable arm over the surgical field with sterile draping. The preferred camera-to-tumor distance was 20-40 centimeters, but the system also allows positioning at closer or longer distances to areas of interest. For optimal imaging, all other light sources in the OR were switched off and window blinds were closed. The imaging system itself provides powerful white light illumination of the surgical field when imaging is performed.
The exploratory endpoints were defined as: 1) Morphological co-localization between optical signal, tumor tissue, and target (i.e. uPAR) expression, 2) Optical visualization of local neck lymph node metastasis, and 3) Longitudinal investigation of the optimal signal intensity for intraoperative imaging.

Regarding `CC(C)C[C@H](NC(=O)[C@H](Cc1ccc(O)cc1)NC(=O)[C@@H](CCCNC(=N)N)NC(=O)[C@@H](CO)NC(=O)[C@H](Cc1ccccc1)NC(=O)[C@H](CC1CCCCC1)NC(=O)[C@H](CC(=O)O)NC(=O)[C@H](CCC(=O)O)NC(=O)[C@H](CCC(=O)O)NC(=O)CCCCC[N+]1=C(C=CC=CC=CC=C2N(CCCCS(=O)(=O)[O-])c3ccc4ccccc4c3C2(C)C)C(C)(C)c2c1ccc1ccccc21)C(=O)N[C@@H](Cc1c[nH]c2ccccc12)C(=O)N[C@@H](CO)C(=O)O` [FG001, ICG-Glu-Glu-AE105] (X1-EED[Cha]F[dS][dR]YLWS-OH; N-terminus and C-terminus assumed), in series [1], the “Sensitivity for tumor detection verified by histology” value is 100%. Also, at uPAR (days following surgery), the “Optical signal in resected cancer tissues after formalin fixation and paraffin embedding” value is “preserved”. Moreover, on uPAR (microscopic fluorescence imaging, tumor cross-sections of 5 patients across the 3 dose cohorts), the “Co-localization between uPAR-expression and FG001 fluorescence signal” value is recorded as “high level of co-localization”. Besides, in the series “clinical” (all patients with a valid terminal phase), the “Extrapolation to AUC from 0 to infinity (AUC0-inf)” value is given as less than 25%. In addition, the “Mean half-life of FG001” value in “clinical” (human plasma, based on the plasma concentration measurements, all evaluable patients) is given as “approximately 12 hours”. The “Maximum concentration (mean (SD))” value in “clinical” (human plasma, single 4 mg i.v. dose, n = 4, LC-MS/MS) is listed as 577 (373)* ng/mL. In addition, in “clinical” (human plasma, single i.v. dose, first sample at 1 hr ± 15 min), the “Time of peak plasma concentration” value is “within the first hour”. Moreover, in “clinical” (human, plasma, iv), the Tmax is 1 h. The Cmax is 4300 ng/mL in the series “clinical” (human, plasma, iv, 16 mg) and 8130 ng/mL in “clinical” (human, plasma, iv, 36 mg). For the same molecule, in “clinical” (human, plasma, iv, 36 mg), the half-life was 672 min. For the same molecule, in the series “clinical” (one patient in the 4 mg group), the “Time of peak plasma concentration, one outlier” value was 12.8 h. In addition, in series [2] (during neck dissection, confirmed on back table and by pathology), the “Intraoperative visualization of clinical neck metastasis” value is listed as “clearly visualized”. Besides, the “Uptake in adjacent unaffected lymph nodes” value in series [2] (no systematic imaging of lymph nodes without clinical evidence of metastasis) was “No uptake”. In series [2] (two cases with SNB staging, nodes all negative for metastatic deposits on final pathology), the “Optical signal of harvested sentinel nodes” value is given as “absent or weak optical signal”.
